Reference: paper PMC11900463
Positions count from the first letter of the chain named. Names and notes keep the numbering of the source.

T1: sCPR (truncated soluble form of rat NADPH–cytochrome P450 reductase) (rat) (UniProt P00388)
T1 sequence (P00388 whole entry, looked up): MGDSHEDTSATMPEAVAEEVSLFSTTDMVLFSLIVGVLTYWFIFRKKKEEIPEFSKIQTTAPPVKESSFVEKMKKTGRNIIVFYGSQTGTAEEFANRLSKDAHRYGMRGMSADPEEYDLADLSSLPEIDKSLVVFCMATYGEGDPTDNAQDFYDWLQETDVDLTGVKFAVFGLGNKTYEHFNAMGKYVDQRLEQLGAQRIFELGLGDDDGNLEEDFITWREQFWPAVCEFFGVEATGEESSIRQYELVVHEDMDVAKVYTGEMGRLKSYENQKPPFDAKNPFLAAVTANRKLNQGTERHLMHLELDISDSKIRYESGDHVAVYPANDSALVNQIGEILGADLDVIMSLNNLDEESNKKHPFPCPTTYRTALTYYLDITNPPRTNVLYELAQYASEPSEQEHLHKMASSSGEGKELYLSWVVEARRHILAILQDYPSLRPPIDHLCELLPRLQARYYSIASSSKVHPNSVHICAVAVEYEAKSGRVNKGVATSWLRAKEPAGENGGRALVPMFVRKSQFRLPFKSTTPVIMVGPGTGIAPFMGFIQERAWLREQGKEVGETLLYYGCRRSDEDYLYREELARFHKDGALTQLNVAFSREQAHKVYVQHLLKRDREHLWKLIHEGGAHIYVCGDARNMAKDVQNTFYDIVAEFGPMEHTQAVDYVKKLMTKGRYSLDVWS

B1: 6xHis-tagged C281S tsHO-2 (enzyme)
chain: MADLSELLKEGTKEAHDRAENTQFVKDFLKGNIKKELFKLATTALYFTYSALEEEMDRNKDHPAFAPLYFPTELHRKEALIKDMEYFFGENWEEQVKCSEAAQKYVDRIHYVGQNEPELLVAHAYTRYMGDLSGGQVLKKVAQRALKLPSTGEGTQFYLFEHVDNAQQFKQFYRARMNALDLSMKTKERIVEEANKAFEYNMQIFSELDQAGSMLTKETLEDGLPVHDGKGDVRKCPFYAAQPDKGTLGGSNSPFRTAMAVLRK
B2: 6xHis-tagged C264S/C281S tsHO-2 (enzyme)
chain: B1 chain with C236S
B3: 6xHis-tagged C264S tsHO-2 (enzyme)
chain: B1 chain with C236S, S253C

Target: T1, sCPR (truncated soluble form of rat NADPH–cytochrome P450 reductase) (rat)

Row | Molecule | apparent reduction rate constant of heme by sCPR (formation of the CO-bound heme complex, CO-saturated, anaerobic, 30 °C; non-His-tagged enzyme) | enzymatic activity (rate of bilirubin formation at 37 °C with 2.9 μM sCPR, 40 μM heme, NADPH; non-His-tagged enzyme)
1 | 6xHis-tagged ΔHRM tsHO-2 (from UniProt P23711 29-292) (enzyme) | 106 min⁻¹ | 14.3 min⁻¹
2 | B1 | 89.6 min⁻¹ | 7.32 min⁻¹
3 | B2 | 113 min⁻¹ | 11.2 min⁻¹
4 | B3 | 93.2 min⁻¹ | 4.91 min⁻¹
